From patent publication US20180030118A1

Assays:
Test in all cases: ELISA, GP coated 200 ng/well, mAb at 2 ug/mL; negative control
[1] = biological target: MARV Angola GPe (Marburg virus, strain Angola) (UniProt Q1PD50)
[2] = biological target: MARV Ravn GPe (Marburg virus, strain Ravn) (UniProt Q1PDC7)
[3] = biological target: MARV Musoke GPe (Marburg virus, strain Musoke) (UniProt P35253)
Sequence of MARV Musoke GPe (Marburg virus, strain Musoke) (P35253 19-648): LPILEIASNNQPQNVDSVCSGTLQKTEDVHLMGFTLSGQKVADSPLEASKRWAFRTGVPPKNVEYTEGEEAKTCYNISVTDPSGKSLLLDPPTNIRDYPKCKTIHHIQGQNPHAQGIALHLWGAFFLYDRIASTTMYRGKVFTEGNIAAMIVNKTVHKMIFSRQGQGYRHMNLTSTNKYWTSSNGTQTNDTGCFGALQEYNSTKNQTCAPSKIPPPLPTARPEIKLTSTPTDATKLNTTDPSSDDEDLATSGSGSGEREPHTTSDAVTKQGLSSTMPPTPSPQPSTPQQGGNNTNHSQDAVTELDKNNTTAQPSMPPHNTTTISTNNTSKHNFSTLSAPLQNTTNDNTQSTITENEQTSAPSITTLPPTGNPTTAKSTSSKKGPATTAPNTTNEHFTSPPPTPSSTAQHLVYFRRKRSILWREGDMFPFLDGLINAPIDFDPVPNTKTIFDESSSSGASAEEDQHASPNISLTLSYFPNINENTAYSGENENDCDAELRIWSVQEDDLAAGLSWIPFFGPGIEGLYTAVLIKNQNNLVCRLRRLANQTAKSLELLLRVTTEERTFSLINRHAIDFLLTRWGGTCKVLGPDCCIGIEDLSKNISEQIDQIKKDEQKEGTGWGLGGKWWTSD

Sequence of MARV Ravn GPe (Marburg virus, strain Ravn) (Q1PDC7 19-648): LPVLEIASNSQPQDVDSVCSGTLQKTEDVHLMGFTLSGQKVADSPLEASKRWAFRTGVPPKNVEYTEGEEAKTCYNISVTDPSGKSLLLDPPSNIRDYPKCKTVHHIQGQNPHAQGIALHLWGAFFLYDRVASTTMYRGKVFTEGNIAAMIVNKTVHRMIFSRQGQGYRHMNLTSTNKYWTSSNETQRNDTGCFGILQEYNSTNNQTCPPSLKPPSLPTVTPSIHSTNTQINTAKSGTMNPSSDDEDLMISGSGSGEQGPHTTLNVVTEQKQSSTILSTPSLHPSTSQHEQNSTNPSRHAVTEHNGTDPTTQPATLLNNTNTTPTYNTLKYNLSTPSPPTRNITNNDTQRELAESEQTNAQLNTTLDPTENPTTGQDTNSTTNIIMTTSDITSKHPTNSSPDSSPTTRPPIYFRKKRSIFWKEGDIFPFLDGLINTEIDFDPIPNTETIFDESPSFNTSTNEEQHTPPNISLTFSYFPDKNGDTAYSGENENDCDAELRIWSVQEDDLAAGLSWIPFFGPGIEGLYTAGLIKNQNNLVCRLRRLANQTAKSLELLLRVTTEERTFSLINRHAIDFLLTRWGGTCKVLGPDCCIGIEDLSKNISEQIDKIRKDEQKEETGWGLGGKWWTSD
Sequence of MARV Angola GPe (Marburg virus, strain Angola) (Q1PD50 19-648): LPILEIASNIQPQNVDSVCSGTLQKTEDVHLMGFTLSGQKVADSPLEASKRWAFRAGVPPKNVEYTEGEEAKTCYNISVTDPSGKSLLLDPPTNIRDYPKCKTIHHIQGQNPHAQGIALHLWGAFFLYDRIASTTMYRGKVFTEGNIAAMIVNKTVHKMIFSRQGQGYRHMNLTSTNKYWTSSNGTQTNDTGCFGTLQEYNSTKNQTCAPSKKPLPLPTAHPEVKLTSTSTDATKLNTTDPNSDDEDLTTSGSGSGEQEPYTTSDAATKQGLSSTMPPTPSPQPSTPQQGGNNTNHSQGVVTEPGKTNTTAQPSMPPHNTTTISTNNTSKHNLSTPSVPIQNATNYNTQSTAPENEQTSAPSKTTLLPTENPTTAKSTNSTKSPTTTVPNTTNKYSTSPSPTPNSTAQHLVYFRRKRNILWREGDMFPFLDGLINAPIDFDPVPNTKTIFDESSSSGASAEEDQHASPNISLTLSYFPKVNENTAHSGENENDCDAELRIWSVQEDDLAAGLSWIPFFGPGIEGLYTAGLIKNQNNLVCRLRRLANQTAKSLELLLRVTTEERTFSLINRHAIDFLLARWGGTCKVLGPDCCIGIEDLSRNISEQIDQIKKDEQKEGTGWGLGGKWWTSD

| Substance | OD405 @ 30 min [1] | OD405 @ 30 min [2] | OD405 @ 30 min [3] |
| --- | --- | --- | --- |
| IgG Neg Control (human) (antibody) | 0.054 OD405 | 0.052 OD405 | 0.056 OD405 |
| IgG Neg Control (murine) (antibody) | 0.047 OD405 | 0.049 OD405 | 0.049 OD405 |
